Laboratory results: patent US20240181006A1, “POLYPEPTIDES BINDING ADAMTS5, MMP13 AND AGGRECAN” (Merck Patent GmbH, priority 2017, published 2024)

Experiments:
Format in all cases: binding
[1] = target: T1, human ADAMTS5 (Homo sapiens, UniProt Q9UNA0); test: SPR-based off-rate analysis, human ADAMTS5
T1 sequence (Q9UNA0 262-930): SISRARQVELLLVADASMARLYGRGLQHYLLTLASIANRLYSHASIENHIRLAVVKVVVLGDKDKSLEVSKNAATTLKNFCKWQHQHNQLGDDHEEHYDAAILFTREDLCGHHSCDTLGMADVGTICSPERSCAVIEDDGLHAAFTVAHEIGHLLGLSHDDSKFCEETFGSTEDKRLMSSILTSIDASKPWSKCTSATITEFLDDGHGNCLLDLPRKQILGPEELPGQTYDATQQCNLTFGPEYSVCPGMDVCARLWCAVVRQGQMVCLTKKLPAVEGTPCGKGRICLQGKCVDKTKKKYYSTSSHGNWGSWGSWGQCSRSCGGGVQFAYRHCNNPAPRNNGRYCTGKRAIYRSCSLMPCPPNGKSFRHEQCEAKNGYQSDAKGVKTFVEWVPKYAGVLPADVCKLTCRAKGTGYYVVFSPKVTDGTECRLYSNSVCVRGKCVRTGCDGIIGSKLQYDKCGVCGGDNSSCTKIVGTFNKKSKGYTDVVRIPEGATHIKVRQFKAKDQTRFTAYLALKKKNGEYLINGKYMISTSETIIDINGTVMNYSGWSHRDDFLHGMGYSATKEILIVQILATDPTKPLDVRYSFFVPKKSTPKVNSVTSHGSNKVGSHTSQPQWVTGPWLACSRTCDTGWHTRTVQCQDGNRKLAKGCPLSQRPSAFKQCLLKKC
Method: (§1) Species cross-reactivity was initially evaluated via SPR-based off-rate analysis on a Biacore T100 instrument. Polypeptides were tested for binding to human, cynomolgus monkey (“cyno”), guinea pig, mouse, and bovine ADAMTS5. To this end, recombinant ADAMTS5 was immobilized onto a CM5 chip via amine coupling using EDC and NHS. Purified ISVD 02F03 was injected for 2 minutes at a concentration of 100 nM and allowed to dissociate for 15 min at a flow rate of 45 μl/min. Off-rate for each individual ADAMTS5 was determined by fitting a 1:1 interaction model (Langmuir model) onto the individual dissociation curves using the BIA Evaluation software. As a reference, off-rates on human ADAMTS5 were determined in each experiment.

[2] = target: T2, guinea pig ADAMTS5 (Cavia porcellus, UniProt H0VFP0); test: SPR-based off-rate analysis, guinea pig ADAMTS5; conditions: Experiment 1
T2 sequence (H0VFP0 21-906): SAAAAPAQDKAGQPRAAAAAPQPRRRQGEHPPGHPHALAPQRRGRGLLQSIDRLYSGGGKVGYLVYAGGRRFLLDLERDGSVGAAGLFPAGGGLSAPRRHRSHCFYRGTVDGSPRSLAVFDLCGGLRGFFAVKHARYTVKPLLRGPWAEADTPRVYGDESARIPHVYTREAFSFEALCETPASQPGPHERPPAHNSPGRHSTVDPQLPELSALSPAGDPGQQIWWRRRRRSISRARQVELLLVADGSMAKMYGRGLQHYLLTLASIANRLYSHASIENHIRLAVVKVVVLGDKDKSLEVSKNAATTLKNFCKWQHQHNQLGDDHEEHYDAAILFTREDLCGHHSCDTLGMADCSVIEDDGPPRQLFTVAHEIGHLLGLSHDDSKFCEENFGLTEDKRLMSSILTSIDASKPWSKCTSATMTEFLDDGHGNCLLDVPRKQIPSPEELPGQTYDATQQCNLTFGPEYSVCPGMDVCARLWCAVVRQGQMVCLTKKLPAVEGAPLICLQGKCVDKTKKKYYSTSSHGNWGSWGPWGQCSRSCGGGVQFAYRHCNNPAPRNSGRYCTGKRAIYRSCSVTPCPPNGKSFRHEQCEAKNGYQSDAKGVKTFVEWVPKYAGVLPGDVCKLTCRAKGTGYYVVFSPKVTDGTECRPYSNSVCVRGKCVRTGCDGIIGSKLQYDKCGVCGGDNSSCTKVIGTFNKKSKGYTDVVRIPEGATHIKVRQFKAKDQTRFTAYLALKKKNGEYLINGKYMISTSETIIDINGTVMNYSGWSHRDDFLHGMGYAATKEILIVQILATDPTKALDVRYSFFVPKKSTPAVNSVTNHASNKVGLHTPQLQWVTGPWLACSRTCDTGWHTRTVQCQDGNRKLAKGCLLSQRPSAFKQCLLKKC
Method: as §1

[3] = system: cynomolgus monkey ADAMTS5; test: SPR-based off-rate analysis, cynomolgus ADAMTS5; conditions: Experiment 1
Method: as §1

[4] = system: bovine ADAMTS5; test: SPR-based off-rate analysis, bovine ADAMTS5; conditions: Experiment 3
Method: as §1

B1: ISVD 02F03: immunoglobulin single variable domain which specifically binds ADAMTS5 (protein)
VHH: EVQLVESGGGVVQPGGSLRLSCAASGRTVSSYAMGWFRQAPGKEREFVAGISRSAERTYYVDSLKGRFTISRDNSKNTVYLQMNSLRPEDTALYYCAADLDPNRIFSREEYAYWGQGTLVTVSS
modifications: Description of Artificial Sequence: Synthetic anti-ADAMTS5 immunoglobulin single variable domain (ISVD)
SPR based off-rate, kd, Human ADAMTS-5 ([1]; Experiment 1): 3.3e-05 s⁻¹ | SPR based off-rate, kd, Human ADAMTS-5 ([1]; Experiment 2): 6.5e-05 s⁻¹ | SPR based off-rate, kd, Human ADAMTS-5 ([1]; Experiment 3): 9.7e-05 s⁻¹ | SPR based off-rate, kd, Guinea pig ADAMTS-5 [2]: 3.4e-05 s⁻¹ | SPR based off-rate, kd, Cyno ADAMTS-5 [3]: 2.2e-05 s⁻¹ | SPR based off-rate, kd, Bovine ADAMTS-5 [4]: 4.3e-05 s⁻¹
